Data taken from publication PMC3950671.

How the values were obtained:
PGC7 (Dppa3/Stella) = molecular target: T1, PGC7 (Dppa3/Stella) (human, UniProt Q6W0C5 1-159); experiment: EMSA
T1 sequence: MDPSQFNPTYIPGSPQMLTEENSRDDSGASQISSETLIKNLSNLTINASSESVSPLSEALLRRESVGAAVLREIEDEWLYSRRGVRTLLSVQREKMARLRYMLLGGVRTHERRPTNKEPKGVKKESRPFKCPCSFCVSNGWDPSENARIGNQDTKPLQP

PGC7 D9 = molecular target: T2, PGC7 D9 (human, UniProt Q6W0C5 20-95); experiment: EMSA
T2 sequence: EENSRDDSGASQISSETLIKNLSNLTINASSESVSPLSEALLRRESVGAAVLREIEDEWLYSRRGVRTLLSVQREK

B1: PGC7 motif 50-mer (dsDNA)
DNA 1: GAGTAAGATCATGCCACTGCACTTCAGCCTGGGCACAGAGTGAGGCTGGG
DNA 2: CCCAGCCTCACTCTGTGCCCAGGCTGAAGTGCAGTGGCATGATCTTACTC
B1: binds (PGC7 (Dppa3/Stella)); binds (PGC7 D9).
